Source: patent publication US20220403031A1 (WUXI BIOLOGICS IRELAND, published 2022)

Assays:
[1] = target: T1, human PD-L1 on CHO-K1 cells (W315-CHO-K1.hPro1.C11) (human, UniProt Q9NZQ7 19-290); assay: FACS affinity on human PD-L1 cells, quantitative beads
T1 construct: whole, on cells; also called cell surface human PD-L1; Human PD-L1-expressing CHO-K1 cell
Protocol: (§1) Binding affinities of testing antibodies to cell surface human, cynomolgus and mouse PD-L1 were determined by flow cytometry on the engineering cell lines, respectively. The cells were transferred in to 96-well U-bottom plates (BD) at a density of 5×10⁴ cells/well. Antibodies to be tested were 1: 2-fold serially diluted in 1% BSA/1×PBS and incubated with cells at 4° C. for 1 hr. Then, the plates were centrifuged at 1500 rpm for 4 mins and the supernatant was discarded. The secondary antibody, Alexa647 conjugated goat anti-human IgG Fc (Jackson, Cat No. 109-605-098, Lot No. 121363), was added to re-suspend cells and incubated at 4° C. in the dark for 30 min. The cells were washed once and re-suspended in 100 μL 1% BSA/1×PBS, then measured by flow cytometry (BD Canto II) and analyzed by FlowJo. Fluorescence intensity was converted to bound molecules/cell based on the quantitative beads (Quantum™ MESF Kits, Bangs Laboratories). KD value was calculated by Graphpad Prism5.

[2] = target: human serum Albumin (human, UniProt P02768 25-609); assay: non-specific binding ELISA, antigen coated at 2 ug/mL
Protocol: Non-specific binding ELISA was performed in 96-well high binding plates (Nunc-Immuno Plate, Thermo Scientific). The plate was coated with various antigens (as listed in the left column of Table 11) at 2 μg/mL overnight at 4° C. After blocking with 2% BSA-PBS, 10 μg/ml antibodies were added to the plate and incubated for 2 hours. […] The HRP signal was detected by adding TMB peroxidase substrate and the reaction was stopped after 12 minutes using 2M HCl. The absorbance at 450 nm was read using a microplate reader (Molecular Device). All incubation steps were performed at room temperature. The plate was washed with PBST (0.05% Tween20-PBS) between steps.

[3] = target: PD-L1 (target of the serum stability flow cytometry); assay: flow cytometry binding to PD-L1 of AP3R2-1A3-z12-hIgG1 kept 0, 1, 4, 7 or 14 days in human serum at 37 C
Protocol: Fresh human serum was prepared from healthy donor by centrifugation. Testing antibody was mixed with serum and ensure the serum content >90% of total volume. The mix aliquots were incubated at 37° C. for 0 day, 1 day, 4 days, 7 days and 14 days, respectively. At the indicated time point the samples were quickly-frozen in liquid nitrogen and stored at −80° C. until analysis. The bindings to PD-L1 of the aliquots at above time points were evaluated by flow cytometry, respectively.

[4] = target: T2, mouse PD-L1 on 293F cells (W315-293F.mPro1.C1) (mouse, UniProt Q9EP73 19-290); assay: FACS affinity on mouse PD-L1 cells, quantitative beads
T2 construct: whole, on cells; also called cell surface mouse PD-L1; Mouse PD-L1-expressing 293F cell
Protocol: as §1

[5] = target: T3, hCD80.ECD.His (SinoBiological-10698-H08H) (human, UniProt P33681 35-242); assay: ELISA on coated protein (1 ug/mL)
T3 construct: extracellular domain; His tag
T3 sequence (looked up): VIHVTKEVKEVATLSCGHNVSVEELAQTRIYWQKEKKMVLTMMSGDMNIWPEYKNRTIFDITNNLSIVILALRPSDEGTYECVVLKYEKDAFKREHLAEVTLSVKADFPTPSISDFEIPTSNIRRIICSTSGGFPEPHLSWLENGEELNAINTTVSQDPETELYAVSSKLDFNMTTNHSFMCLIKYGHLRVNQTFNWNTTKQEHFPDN
Protocol: (§2) The plate was incubated at ambient temperature for 1 hour. The binding of the antibodies to the immobilized proteins was detected by HRP-labeled goat anti-human IgG antibody. The color was developed by dispensing 100 μL of TMB substrate, and then stopped by 100 μL of 2N HCl. The absorbance was read at 450 nm and 540 nm using a microplate spectrophotometer, respectively.

[6] = target: T4, hPD-L2.ECD.His (SinoBiological-10292-H08H) (human, UniProt Q9BQ51 20-220); assay: ELISA on coated protein (1 ug/mL)
T4 construct: extracellular domain; His tag
T4 sequence (looked up): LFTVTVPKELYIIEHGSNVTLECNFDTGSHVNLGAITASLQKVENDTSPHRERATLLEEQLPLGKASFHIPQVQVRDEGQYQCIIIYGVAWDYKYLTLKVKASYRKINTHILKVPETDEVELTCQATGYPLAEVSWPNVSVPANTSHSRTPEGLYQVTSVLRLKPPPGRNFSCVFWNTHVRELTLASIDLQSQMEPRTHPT
Protocol: as §2

T2 sequence (Q9EP73 19-290): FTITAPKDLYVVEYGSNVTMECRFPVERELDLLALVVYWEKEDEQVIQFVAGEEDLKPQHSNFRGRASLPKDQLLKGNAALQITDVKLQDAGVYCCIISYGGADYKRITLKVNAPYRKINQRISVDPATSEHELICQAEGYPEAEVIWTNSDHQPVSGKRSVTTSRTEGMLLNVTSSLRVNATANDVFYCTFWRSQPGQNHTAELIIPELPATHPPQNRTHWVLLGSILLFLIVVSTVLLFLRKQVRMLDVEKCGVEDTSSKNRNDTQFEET
T1 sequence (Q9NZQ7 19-290): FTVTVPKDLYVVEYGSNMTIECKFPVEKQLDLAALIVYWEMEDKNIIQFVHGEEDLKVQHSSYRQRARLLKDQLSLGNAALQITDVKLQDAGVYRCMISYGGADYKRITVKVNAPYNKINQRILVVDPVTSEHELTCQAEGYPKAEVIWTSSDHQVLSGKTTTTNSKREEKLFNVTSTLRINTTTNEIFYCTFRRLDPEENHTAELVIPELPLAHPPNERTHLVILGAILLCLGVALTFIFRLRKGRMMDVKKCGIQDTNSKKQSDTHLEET
Chain of PD-L1 (target of the serum stability flow cytometry) (chain, as listed by the source): as the sequence (Q9NZQ7 19-290) above

B1: AP3R2-1A3-z12-hIgG1 (Fc fusion)
chain: EVQLVESGGGLVQPGGSLRLSCAASGHFSNLAVNWFRQAPGKERELVAGILWSGGSTFYADSVKGRFTISRGNAENMLYLQMNSLRAEDTAVYYCNTGTNWGQGTLVTVSS
notes: VHH-Fc (hIgG1) fusion of the humanized VHH; also called W3156-AP3R2-1A3-z12-hIgG1; W3156 antibody; not shown: Fc of human IgG1
How did the Kd [1] turn out when B1 was run?
Its Kd is 0.26 nM.

Does B1 bind [2]?
Result: no binding (tested: 10 µg/ml)

What about the “EC50 (read off the curve)” value [3] of the same binder?
The value was ~0.7 nM.

What about the Kd [4] of the same binder?
The Kd was 0.69 nM.

Does B1 bind [5]?
Result: no binding (tested: 66.7 nM)

Does B1 bind [6]?
Result: no binding (tested: 66.7 nM)
